Several values for one entry are separate records, joined by “and”; a condition that tells them apart may be missing. Identical values can stand only once.
How the values were obtained:
[1] = target: pyruvate kinase M2 type (PKM2), human HK-2 cells (human (endogenous in HK-2)) (UniProt P14618); assay: cross-linking; glutaraldehyde chemical cross-linking of scramble siRNA, sirt3 siRNA transfected and TGFβ alone treated HK-2 cells; Western blot
[2] = target: pyruvate kinase M2 type (PKM2), mouse kidney (mouse (endogenous in kidney)) (UniProt P52480); assay: cross-linking; glutaraldehyde added to clarified kidney lysate (4 mg/mL; sodium phosphate buffer pH 7.3, 0.5% Triton X-100), 37 °C for 10 min, stopped with Tris; 5-20% SDS/PAGE and Western blotting; kidneys of control and diabetic CD-1 and C57Bl6 mice, scramble or sirt3 siRNA injected diabetic mice, DCA treated diabetic mice, KK/Ta-Ins2Akita mice and littermate controls

pyruvate kinase M2 type (PKM2), mouse kidney, P52480 1-531 (enzyme; other documents disagree on this pair), sequence (P52480 whole entry): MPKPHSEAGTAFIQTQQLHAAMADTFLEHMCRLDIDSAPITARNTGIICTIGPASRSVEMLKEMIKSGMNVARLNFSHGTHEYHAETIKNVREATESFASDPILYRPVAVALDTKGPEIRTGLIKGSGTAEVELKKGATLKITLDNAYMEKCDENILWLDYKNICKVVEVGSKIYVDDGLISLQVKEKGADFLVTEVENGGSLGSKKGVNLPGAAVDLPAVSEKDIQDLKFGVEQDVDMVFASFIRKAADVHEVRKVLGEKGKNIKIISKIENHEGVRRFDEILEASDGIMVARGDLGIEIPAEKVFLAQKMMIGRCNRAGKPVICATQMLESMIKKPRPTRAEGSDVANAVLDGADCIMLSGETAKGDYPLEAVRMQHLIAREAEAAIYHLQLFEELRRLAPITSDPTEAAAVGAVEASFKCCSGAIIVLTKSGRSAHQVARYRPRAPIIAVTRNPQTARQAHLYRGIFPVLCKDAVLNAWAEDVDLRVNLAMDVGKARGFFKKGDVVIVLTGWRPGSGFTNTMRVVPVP
pyruvate kinase M2 type (PKM2), human HK-2 cells, P14618 1-531 (enzyme; other documents disagree on this pair), sequence (P14618 whole entry): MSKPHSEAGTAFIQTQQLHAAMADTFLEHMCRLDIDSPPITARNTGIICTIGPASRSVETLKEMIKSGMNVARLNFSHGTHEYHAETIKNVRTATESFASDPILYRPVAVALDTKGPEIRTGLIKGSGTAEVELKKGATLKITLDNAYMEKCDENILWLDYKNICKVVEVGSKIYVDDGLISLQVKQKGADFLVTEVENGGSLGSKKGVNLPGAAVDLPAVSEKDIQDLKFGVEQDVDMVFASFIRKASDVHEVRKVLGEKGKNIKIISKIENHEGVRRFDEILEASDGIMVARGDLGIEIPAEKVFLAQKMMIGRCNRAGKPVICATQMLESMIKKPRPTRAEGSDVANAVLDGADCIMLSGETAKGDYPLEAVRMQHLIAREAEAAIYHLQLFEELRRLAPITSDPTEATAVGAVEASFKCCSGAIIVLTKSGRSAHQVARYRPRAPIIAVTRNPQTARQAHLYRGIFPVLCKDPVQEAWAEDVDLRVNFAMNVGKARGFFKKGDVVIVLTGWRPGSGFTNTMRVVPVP

Substance | stoichiometry N [1] | stoichiometry N [2]
pyruvate kinase M2 type (PKM2), human HK-2 cells, P14618 1-531 (enzyme; other documents disagree on this pair) | 2 | –
pyruvate kinase M2 type (PKM2), mouse kidney, P52480 1-531 (enzyme; other documents disagree on this pair) | – | 2 and 4
